One test concerns mouse dry eye model. The test is described as follows: Tear volume assay (Schirmer's test strip), low-humidity+scopolamine-induced dry eye disease model. The test is classed as in vivo, C57BL/6. As for the experimental part:
Corneal fluorescein score assay and tear volume assay were respectively performed on eyeballs of mice treated with the compositions of Preparation Examples 1, 2, and 3 prepared in Example 7 above by using a low-humidity+scopolamine-induced dry eye disease (DED) model.
While the test animals were raised in a desiccating stress chamber with a relative humidity of 30% or less, scopolamine hydrobromide (S0929, Sigma-aldrich) prepared in a concentration of 2.5 mg/mL in saline (0.9% normal saline, JW Pharmaceuticals Corp.) was subcutaneously injected thereinto four times a day (QID: 09:30 AM, 12:00 PM, 15:00 PM, and 17:30 PM) for 10 days at a dose of 10 mL/kg to induce dry eye disease. The subcutaneous injection was performed at the back while moving positions to minimize damage caused by repeated administration. […]
• (1) General anesthesia of the mice was induced (10 mg/kg xylazine and 100 mg/kg ketamine, intraperitoneal injection). • (2) After 3 hours from administration of scopolamine hydrobromide in the morning (at 9:30 AM), measurement was conducted. • (3) The volume of tear was measured by using a Schirmer's test strip cut to ½ thickness. […] Then, one drop (5 μl) of physiological saline was applied to the eyeballs. • (4) A length of a wet portion of the strip was measured by a ruler. […]

The test system of test [1] is CD11 b in lacrimal glands. Put plainly: CD11 b immunofluorescence in lacrimal gland, mouse dry eye model. The test is classed as in vivo, C57BL/6. The note with it: after 16 days of drug treatment. As for the experimental part:
In this example, expression of CD11 b was identified in lacrimal glands in order to identify in vivo anti-inflammatory effect of the HAPLN1 protein-containing composition of the present disclosure. That is, on the 2nd day after 16 days of drug treatment, eyes were enucleated and paraffin blocked. IHC-IF was performed on a section slide, and expression (green) of CD11 b was identified by using an Anti-CD11 b antibody. FIG. 13B is a graph illustrating quantified expression levels of FIG. 13A (FIG. 13B).

Test [2] relates to MUC5AC in human conjunctiva epithelial cells (HConEpiC). The test is described as follows: Anti-MUC5AC fluorescence staining under high osmotic pressure. The class given is cell-based. As for the experimental part:
First, human conjunctiva epithelial cells (HConEpiC) obtained after 4th passage of culture were seeded onto 24 wells and incubated for 24 hours, and then treated with high osmotic pressure of 450 mOsM simultaneously with the composition of the present disclosure having various concentrations (0, 5, 10, 20, 50, 100, and 200 ng/ml) of the HAPLN1 protein or Cyclosporine A (0.1 μM). After 72 hours of incubation, the cells were immobilized with 4% paraformaldehyde for 30 minutes and washed with a buffer. Subsequently, fluorescence staining was performed by using Anti-MUC5AC (DAPI labels the nuclei).

The test system of another test is corneal epithelial cells. The test is described as follows: Detachment of corneal epithelial cells (H & E staining), mouse dry eye model. The note with it: after 16 days of drug treatment, regardless of concentration. The test is classed as in vivo, C57BL/6. Here is the method:
On the 2nd day after 16 days of drug treatment, eyes were enucleated and paraffin blocked, and tissue was stained by hematoxylin and eosin (H & E) staining on a prepared slide (FIG. 9A). The number of detached corneal epithelial cells was measured and quantified (FIG. 9B).

The subject of test [3] is human corneal epithelial cells. Put plainly: Scratch wound healing (cell proliferation and migration) under high osmotic pressure. The class given is cell-based. The note with it: HCEC, 450 mOsM. As for the experimental part: The human corneal epithelial cells were seeded onto 24 wells and incubated for 24 hours under low osmotic pressure conditions (314 mOsM). Then, after replacing the culture medium with a high osmotic pressure medium (450 mOsM), the cells were incubated for 48 hours. Then, the surface of the Petri dish was vertically scratched and washed twice, and then the culture medium was replaced with the high osmotic pressure medium again and simultaneously the cells were treated with different concentrations of the HAPLN1 protein-containing composition of the present disclosure (FIG. 2A). A reduction in the scratched area was confirmed by obtaining photographs using a microscope at a time of scratching (0 h) and after 30 hours (FIG. 2B). This was imaged and a ratio of an area filled with cells to an initial area was identified by using ImageJ (FIG. 2C).

B1: hyaluronan and proteoglycan link protein 1 (HAPLN1) (protein, listed as Homo sapiens)
chain: MKSLLLLVLISICWADHLSDNYTLDHDRAIHIQAENGPHLLVEAEQAKVFSHRGGNVTLPCKFYRDPTAFGSGIHKIRIKWTKLTSDYLKEVDVFVSMGYHKKTYGGYQGRVFLKGGSDSDASLVITDLTLEDYGRYKCEVIEGLEDDTVVVALDLQGVVFPYFPRLGRYNLNFHEAQQACLDQDAVIASFDQLYDAWRGGLDWCNAGWLSDGSVQYPITKPREPCGGQNTVPGVRNYGFWDKDKSRYDVFCFTSNFNGRFYYLIHPTKLTYDEAVQACLNDGAQIAKVGQIFAAWKILGYDRCDAGWLADGSVRYPISRPRRRCSPTEAAVRFVGFPDKKHKLYGVYCFRAYN
As to B1, the “tear volume compared with Cyclosporine A” value in the test with mouse dry eye model (after 11 days) is “increased the tear volume far more than Cyclosporine A”. Moreover, the tear volume result with mouse dry eye model (eye drop 0.5, 5, 50 μg/ml, 5 μL b.i.d., regardless of the concentration, more than Cyclosporine A) is “consistently increased”. In addition, in test [1], the “expression level of CD11 b compared with Cyclosporine A” value is listed as “reduced the expression level of CD11 b more than Cyclosporine A” and the “expression of CD11 b in lacrimal glands” value is listed as “decreased”. Further, the “numbers of cells secreting MUC5AC, compared with control” value in test [2] (450 mOsM, 10, 20, 50, 100, and 200 ng/ml, 72 hours) is given as “significantly greater than that of the normal control”. For the same molecule, the “numbers of cells secreting MUC5AC, compared with Cyclosporine A” value in test [2] (450 mOsM, at some concentrations, vs Cyclosporine A 0.1 μM) is given as “greater than the case treated with Cyclosporine A”. The “number of damaged (detached) corneal epithelial cells” value with corneal epithelial cells was “decreased”. Also, the “scratched surface covered by cell proliferation and migration” value in test [3] (5 and 10 ng/ml, 30 hours, normal cells about 82%) is on record as “about 60%”. In test [3] (5 to 100 ng/ml, 30 hours), the “cell proliferation and migration phenomena of scratched surfaces” value is “observed over the entire area”. The “area covered with migrated cells compared with Cyclosporin A” value in test [3] (regardless of concentration, vs 0.1 μM Cyclosporin A) is recorded as “higher than 0.1 μM of Cyclosporin A”.

The record behind these values is US20250152663A1, “COMPOSITION FOR PREVENTION OR TREATMENT OF DRY EYE DISEASE COMPRISING HAPLN1” (HAPLNSCIENCE INC., priority 2021, published 2025).
